Measurements reported in patent US20250270320A1 (EUTILEX, published 2025).

Columns and labels:
[1] = target: T1, recombinant human PD-1-His protein (ECD) (human, UniProt Q15116 25-170); test: SPR
T1 construct: extracellular domain; Used as ELISA coat and SPR partner; also called rhprotein; antigen; not shown: His tag

[2] = target: T2, human PD-1 expressed on cells (human, UniProt Q15116 25-288); test: flow cytometry on cells overexpressing hPD-1
T2 construct: whole, on cells; also called hPD-1; 293 cell line stably expressing human PD-1
T2 sequence (Q15116 25-288): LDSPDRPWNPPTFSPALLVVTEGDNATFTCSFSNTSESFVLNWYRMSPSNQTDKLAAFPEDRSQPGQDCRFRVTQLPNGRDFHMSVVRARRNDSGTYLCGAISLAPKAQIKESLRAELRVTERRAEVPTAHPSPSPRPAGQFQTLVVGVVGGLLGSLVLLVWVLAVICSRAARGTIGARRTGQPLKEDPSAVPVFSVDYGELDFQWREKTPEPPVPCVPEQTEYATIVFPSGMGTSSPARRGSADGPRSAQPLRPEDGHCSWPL

mouse PD-1 antigen = target: T3, mouse PD-1 antigen (mouse, UniProt Q02242 25-167, limits assumed); test: ELISA on the PD-1 antigen of the species, antibody 500 to 3.90625 ng in 1/2 steps
T3 construct: ELISA antigen
T3 sequence (looked up): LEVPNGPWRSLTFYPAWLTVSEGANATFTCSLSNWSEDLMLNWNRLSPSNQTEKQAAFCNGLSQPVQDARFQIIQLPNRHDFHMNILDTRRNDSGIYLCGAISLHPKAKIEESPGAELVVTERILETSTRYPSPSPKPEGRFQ

[3] = target: T2, human PD-1 expressed on cells; test: cell-based or functional assay
[4] = target: T1, recombinant human PD-1-His protein (ECD); test: SPR, drawn table; no unit in the KD column, the Affinity column gives 9.7 nM (the text prints only 9.7 nM)
[5] = target: T2, human PD-1 expressed on cells; test: flow cytometry on activated hCD8 T cells from human blood, 2nd-hIgG-PE detection; 2nd-hIgG-PE alone 1.73
[6] = target: T1, recombinant human PD-1-His protein (ECD); test: SPR, drawn table; the column heads print no unit, units as in the table of FIG 7b
[7] = target: T1, recombinant human PD-1-His protein (ECD); test: SPR, drawn table; no unit in the KD column, the Affinity column gives 5.8 nM (the text prints only 5.8 nM)
[8] = target: T1, recombinant human PD-1-His protein (ECD); test: ELISA on coated recombinant human PD-1-His protein
Protocol: For ELISA, the recombinant human PD-1-His protein was O/N coated on a 96-well ELISA plate at 4° C., and blocked with 5% non-fat skim milk at RT for 1 hr. The antibody was treated with ½ serial dilution of each hybridoma culture medium from 100 ul at RT for 2 hr, and detected by anti-mIgG-HRP.
In addition, each purified humanized antibody was bound to 293 cells expressing human PD-1 and analyzed by flow cytometry.

T1 sequence (Q15116 25-170): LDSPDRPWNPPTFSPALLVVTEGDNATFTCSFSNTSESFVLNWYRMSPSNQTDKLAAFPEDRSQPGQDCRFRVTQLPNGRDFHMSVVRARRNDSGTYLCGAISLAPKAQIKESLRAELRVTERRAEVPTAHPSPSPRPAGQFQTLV

B1: 7C5-T15-01 (antibody, human IgG4, V domains shown)
VH: EVQLVESGGGLVKPGGSLRLSCAASGFTFSSFGMSWVRQAPGKGLELVATIYSNGDYTYYPDSVKGRFTVSRDNAKNSLYLQMNSLRAEDTAVYYCARYYGNYGGYFDYWGQGTLVTVSS
VL: AIQMTQSPSSLSASVGDRVTITCKASQSVWDDLTWYQQKPGKAPKLLIYYASNRYTGVPSRFSGSGSGTDFTLTISSLQPEDFATYYCQQDYSSPPTFGGGTKVEIK
Kd [1]: 9.7 nM | percent of cells in the positive quadrant [2]: 97.3% | binding result (mouse PD-1 antigen): no binding (tested: 500 ng) | EC50 (read off the curve); PD-1/PD-L1 Blockade Bioassay, luciferase RAU [3]: ~0.7 µg/mL | Kd [4]: 9.65 nM | percent of cells in the positive quadrant [5]: 20.3% | koff [6]: 0.000632 s⁻¹ | kon [6]: 65500 M⁻¹ s⁻¹

B2: 2B3W-T14-05 (antibody, human IgG4, V domains shown)
VH: EVQLVESGGGLVQPGGSLRLSCAASGFVFSNYDMSWVRQAPGKGLEWVAYITIGGGTTYYPDTVKGRFTISRDNAKNSLYLQMNSLRAEDTAVYYCARWRYDPLFAMDYWGQGTTVTVSS
VL: DIVLTQTPLSLSVTPGQPASISCRASESVTDYGISFMNWFLQKPGQPPQLLIYAASNQGSGVPDRFSGSGSGTDFTLKISRVEAEDVGVYYCQQSKEVPWTFGQGTKVEIK
notes: also called EU135-T14.05
Kd [1]: 5.8 nM | binding result (mouse PD-1 antigen): no binding (tested: 500 ng) | EC50 (read off the curve); PD-1/PD-L1 Blockade Bioassay, luciferase RAU [3]: ~0.8 µg/mL | percent of cells in the positive quadrant [5]: 17% | Kd [7]: 5.79 nM | koff [6]: 0.000508 s⁻¹ | kon [6]: 87800 M⁻¹ s⁻¹

B3: humanized antibody 2B3R (antibody, V domains shown)
VH: EVQLVESGGGLVQPGGSLRLSCAASGFVFSNYDMSWVRQAPGKGLEWVAYITIGGGTTYYPDTVKGRFTISRDNAKNSLYLQMNSLRAEDTAVYYCARRVYDPLYAMDYWGQGTTVTVSS
VL: DIVLTQTPLSLSVTPGQPASISCRASESVDNYGISFMNWFLQKPGQPPQLLIYAASNQGSGVPDRFSGSGSGTDFTLKISRVEAEDVGVYYCQQSKEVPWTFGQGTKVEIK
notes: Humanized antibody
binding result [8]: no binding
